These results are taken from patent publication US20230329245A1, “COMPOSITIONS AND METHODS OF USE THEREOF” (Curie Co. Inc., priority 2020, published 2023).

In this assay the test system is E. coli ATCC 8739. Put plainly: Growth inhibition of E. coli culture in LB (OD600 / BacTiter-Glo). The format is cell-based. As to conditions: E. coli ATCC 8739; 950 μg/mL. As to the method:
For MIC determination of bacterial cultures, E. coli ATCC 8739, DH5-alpha, DH10-beta, and B. subtilis BGSC 1A1276 was grown overnight (16-18 hours) in LB broth at 37° C. The following day, the cell density of the saturated cultures was calculated using OD600 and cultures were diluted to 10^4 to 10^6 CFU/mL in sterile LB media to generate the inoculum, and 90 μL of the inoculum was combined with 10 μL of serially diluted Tgase SEQ ID NO:1 at a range of 0.0001-0.01 weight percent in the presence or absence of 0.003% lysozyme (100-fold lower than the effective concentration). Growth curves were measured by OD600 on a BioTek® Synergy Plate Reader. Optionally, the following day, a cell viability assay such as BacTiter-Glo™ (Promega®) following manufacturer's protocols) could be used to assess cell viability. A decrease in OD600 or luminescence indicated a decrease in cell viability. Results are presented as a percent reduction in cell count relative to an untreated culture. All test conditions were performed in triplicate.
E. coli ATCC 8739 was grown overnight in LB broth at 37° C. The following day, the cell density of the saturated cultures was calculated using OD600 and cultures were diluted to 10^4 to 10^6 CFU/mL in sterile LB media to generate the inoculum, and 90 μL of the inoculum was combined with 10 μL of serially diluted Tgase SEQ ID NO:6 at a range of 0.001-0.1 weight percent in the presence or absence of chemical preservatives at concentrations above and below the calculated MIC value. A single concentration (at the MIC) of the chemical preservative and static concentrations of Tgase SEQ ID NO:6 (400 μg/mL, 0.04% w/v) are presented in Table 8 as representative examples. Growth curves were measured by OD600 on a BioTek® Synergy Plate Reader and a cell viability assay (BacTiter-Glo™, Promega®, following manufacturer's protocols) was used to assess cell viability. A decrease in OD600 or luminescence indicated a decrease in cell viability. Results are presented as a percent reduction in cell count relative to an untreated culture. […]

B1: Tgase (SEQ ID NO: 6): variant Streptomyces mobaraensis transglutaminase (SEQ ID NO:2) with N-terminal Methionine, C-terminal peptide linker and hexa-His-Tag (protein)
chain: MDPDDRVTPPAEPLDRMPDPYRPSYGRAETVVNNYIRKWQQVYSHRDGRKQQMTEEQREWLSYGCVGVTWVNSGQYPTNRLAFASFDEDRFKNELKNGRPRSGETRAEFEGRVAKESFDEEKGFQRAREVASVMNRALENAHDESAYLDNLKKELANGNDALRNEDARSPFYSALRNTPSFKERNGGNHDPSRMKAVIYSKHFWSGQDRSSSADKRKYGDPDAFRPAPGTGLVDMSRDRNIPRSPTSPGEGFVNFDYGWFGAQTEADADKTVWTHGNHYHAPNGSLGAMHVYESKFRNWSEGYSDFDRGAYVITFIPKSWNTAPDKVKQGWPLEHHHHHH
B1: the growth inhibition is recorded as 85.0%.
